According to the supplement of paper PMC10065799, “High-throughput profiling of sequence recognition by tyrosine kinases and SH2 domains using bacterial peptide display” (eLife, 2023):

Assays:
SHP2-C SH2 = assay: SH2 binding enrichment of the phosphorylated peptide, bacterial display (enrichment ratio); higher = better substrate or ligand; peptides without Tyr show the background
c-Src SH2 = assay: as above
Grb2 SH2 = Grb2 SH2 (UniProt P62993); assay: as above
Hck = Hck (UniProt P08631); assay: phosphorylation enrichment, bacterial display (enrichment ratio); higher = better substrate or ligand; peptides without Tyr show the background
Fes = Fes (UniProt P07332); assay: as above
FGFR3 = FGFR3 (UniProt P22607); assay: as above
Fyn = Fyn (UniProt P06241); assay: as above
Fer (mouse) = assay: as above
Jak2 = Jak2 (UniProt O60674); assay: as above
FGFR1 = FGFR1 (UniProt P11362); assay: as above
MERTK = MERTK (UniProt Q12866); assay: as above
EPHB2 = EPHB2 (UniProt P29323); assay: as above
AncSZ = assay: as above
EPHB1 = EPHB1 (UniProt P54762); assay: as above
c-Abl (mouse) = assay: as above
c-Src = assay: as above
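Wherever SH2 binding enrichment of the phosphorylated peptide, bacterial display is given: peptide library displayed on the E. coli surface as eCPX fusions, selected cells deep-sequenced, score is each peptide's frequency after selection divided by its frequency in the input.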
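Wherever phosphorylation enrichment, bacterial display is given: 11-residue human phosphosite peptides and single-mutation variants displayed on the E. coli surface, counted by deep sequencing, each peptide's frequency after selection divided by its frequency in the unselected input library; frequency after pTyr selection over input frequency; kinase dosed for 20-30% of maximal phosphorylation in three min.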

Sequence of EPHB1 (P54762 whole entry, looked up): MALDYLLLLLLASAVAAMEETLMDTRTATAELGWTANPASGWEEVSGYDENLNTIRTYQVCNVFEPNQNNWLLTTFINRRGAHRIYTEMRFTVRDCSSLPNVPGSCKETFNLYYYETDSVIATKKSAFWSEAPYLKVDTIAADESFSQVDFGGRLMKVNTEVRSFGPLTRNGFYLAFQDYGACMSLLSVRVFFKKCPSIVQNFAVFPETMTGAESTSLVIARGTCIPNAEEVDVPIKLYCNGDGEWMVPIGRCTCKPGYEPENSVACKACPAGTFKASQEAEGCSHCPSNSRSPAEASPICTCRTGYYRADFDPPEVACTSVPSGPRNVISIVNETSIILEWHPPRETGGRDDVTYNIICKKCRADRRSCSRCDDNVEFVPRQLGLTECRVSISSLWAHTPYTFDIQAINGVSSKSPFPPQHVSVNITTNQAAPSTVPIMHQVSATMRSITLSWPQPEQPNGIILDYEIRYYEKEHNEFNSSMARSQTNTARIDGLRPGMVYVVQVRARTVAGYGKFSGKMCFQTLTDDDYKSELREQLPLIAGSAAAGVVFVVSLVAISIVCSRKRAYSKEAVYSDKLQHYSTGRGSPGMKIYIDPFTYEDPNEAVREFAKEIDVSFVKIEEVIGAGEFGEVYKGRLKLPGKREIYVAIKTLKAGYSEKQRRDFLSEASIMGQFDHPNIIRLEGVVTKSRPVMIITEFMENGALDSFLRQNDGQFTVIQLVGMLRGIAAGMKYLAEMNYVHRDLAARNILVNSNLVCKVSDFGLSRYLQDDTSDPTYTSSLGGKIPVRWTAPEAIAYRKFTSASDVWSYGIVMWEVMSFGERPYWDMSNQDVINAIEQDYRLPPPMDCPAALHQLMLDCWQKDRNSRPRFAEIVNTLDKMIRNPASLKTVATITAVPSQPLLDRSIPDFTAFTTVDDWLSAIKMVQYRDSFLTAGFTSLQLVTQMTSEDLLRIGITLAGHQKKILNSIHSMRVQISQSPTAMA
Sequence of EPHB2 (P29323 whole entry, looked up): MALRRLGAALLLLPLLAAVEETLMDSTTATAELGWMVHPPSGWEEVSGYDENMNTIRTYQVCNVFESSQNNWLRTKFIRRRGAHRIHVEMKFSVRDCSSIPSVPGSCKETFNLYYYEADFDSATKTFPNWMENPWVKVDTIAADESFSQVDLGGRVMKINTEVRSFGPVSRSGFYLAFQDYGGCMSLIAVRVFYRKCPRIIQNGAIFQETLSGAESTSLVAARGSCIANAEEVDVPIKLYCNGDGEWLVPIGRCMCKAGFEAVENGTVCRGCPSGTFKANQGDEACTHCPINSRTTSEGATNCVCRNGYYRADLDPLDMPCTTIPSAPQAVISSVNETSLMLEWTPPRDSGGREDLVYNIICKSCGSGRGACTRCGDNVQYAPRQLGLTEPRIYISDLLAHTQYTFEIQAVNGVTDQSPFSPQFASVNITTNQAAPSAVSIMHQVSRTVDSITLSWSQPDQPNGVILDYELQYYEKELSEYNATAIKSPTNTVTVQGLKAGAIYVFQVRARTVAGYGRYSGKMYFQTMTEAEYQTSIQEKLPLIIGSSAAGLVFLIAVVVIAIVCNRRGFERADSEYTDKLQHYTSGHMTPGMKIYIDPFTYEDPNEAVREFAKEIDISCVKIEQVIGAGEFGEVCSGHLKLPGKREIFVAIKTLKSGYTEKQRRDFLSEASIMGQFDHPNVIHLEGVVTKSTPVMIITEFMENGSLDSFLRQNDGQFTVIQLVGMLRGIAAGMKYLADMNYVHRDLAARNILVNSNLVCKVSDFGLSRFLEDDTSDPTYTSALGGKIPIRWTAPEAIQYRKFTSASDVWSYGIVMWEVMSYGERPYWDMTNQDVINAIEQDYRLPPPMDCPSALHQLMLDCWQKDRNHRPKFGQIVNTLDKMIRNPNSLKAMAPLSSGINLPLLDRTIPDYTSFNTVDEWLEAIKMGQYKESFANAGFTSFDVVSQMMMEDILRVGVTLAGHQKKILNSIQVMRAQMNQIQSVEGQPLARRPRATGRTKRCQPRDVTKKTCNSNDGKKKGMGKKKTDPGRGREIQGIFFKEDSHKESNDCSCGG
Sequence of Hck (P08631 whole entry, looked up): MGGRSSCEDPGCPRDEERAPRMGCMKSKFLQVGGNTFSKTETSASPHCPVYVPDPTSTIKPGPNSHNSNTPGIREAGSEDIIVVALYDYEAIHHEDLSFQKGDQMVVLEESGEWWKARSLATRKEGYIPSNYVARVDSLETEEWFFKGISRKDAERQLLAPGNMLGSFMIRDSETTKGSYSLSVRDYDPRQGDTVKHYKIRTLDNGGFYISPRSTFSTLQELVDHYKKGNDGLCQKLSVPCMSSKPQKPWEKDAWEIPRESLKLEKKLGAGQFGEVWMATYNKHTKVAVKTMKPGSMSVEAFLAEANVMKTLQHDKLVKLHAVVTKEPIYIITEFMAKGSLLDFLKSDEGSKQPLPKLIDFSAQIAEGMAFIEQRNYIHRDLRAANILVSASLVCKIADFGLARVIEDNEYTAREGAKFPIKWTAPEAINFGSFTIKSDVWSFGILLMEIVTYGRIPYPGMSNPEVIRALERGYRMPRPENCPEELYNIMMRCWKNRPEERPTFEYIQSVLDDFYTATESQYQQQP
Sequence of MERTK (Q12866 whole entry, looked up): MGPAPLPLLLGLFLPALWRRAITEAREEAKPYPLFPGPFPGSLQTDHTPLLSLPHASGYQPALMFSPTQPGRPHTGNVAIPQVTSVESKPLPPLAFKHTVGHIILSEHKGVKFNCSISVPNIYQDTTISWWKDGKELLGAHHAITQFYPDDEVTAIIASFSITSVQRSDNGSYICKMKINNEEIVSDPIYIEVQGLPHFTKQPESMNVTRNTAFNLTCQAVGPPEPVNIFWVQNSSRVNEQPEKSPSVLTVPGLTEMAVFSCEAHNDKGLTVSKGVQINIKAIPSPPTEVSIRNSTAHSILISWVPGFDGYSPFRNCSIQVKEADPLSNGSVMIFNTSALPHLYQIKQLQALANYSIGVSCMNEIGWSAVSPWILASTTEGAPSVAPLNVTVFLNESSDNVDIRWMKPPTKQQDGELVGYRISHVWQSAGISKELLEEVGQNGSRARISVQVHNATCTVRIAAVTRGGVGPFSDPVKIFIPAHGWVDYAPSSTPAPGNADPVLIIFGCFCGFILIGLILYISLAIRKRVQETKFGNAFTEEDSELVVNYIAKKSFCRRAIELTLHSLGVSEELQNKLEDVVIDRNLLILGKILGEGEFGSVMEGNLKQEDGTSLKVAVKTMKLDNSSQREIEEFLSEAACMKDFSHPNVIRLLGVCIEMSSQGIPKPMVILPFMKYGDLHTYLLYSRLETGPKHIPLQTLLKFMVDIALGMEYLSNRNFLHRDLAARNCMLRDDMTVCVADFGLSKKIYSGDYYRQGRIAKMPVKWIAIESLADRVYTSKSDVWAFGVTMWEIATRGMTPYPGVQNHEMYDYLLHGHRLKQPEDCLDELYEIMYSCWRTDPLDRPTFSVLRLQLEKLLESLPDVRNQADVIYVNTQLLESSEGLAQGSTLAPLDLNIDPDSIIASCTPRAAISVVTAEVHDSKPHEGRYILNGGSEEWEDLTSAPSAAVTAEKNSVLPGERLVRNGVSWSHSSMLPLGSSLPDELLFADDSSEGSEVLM
Sequence of FGFR3 (P22607 whole entry, looked up): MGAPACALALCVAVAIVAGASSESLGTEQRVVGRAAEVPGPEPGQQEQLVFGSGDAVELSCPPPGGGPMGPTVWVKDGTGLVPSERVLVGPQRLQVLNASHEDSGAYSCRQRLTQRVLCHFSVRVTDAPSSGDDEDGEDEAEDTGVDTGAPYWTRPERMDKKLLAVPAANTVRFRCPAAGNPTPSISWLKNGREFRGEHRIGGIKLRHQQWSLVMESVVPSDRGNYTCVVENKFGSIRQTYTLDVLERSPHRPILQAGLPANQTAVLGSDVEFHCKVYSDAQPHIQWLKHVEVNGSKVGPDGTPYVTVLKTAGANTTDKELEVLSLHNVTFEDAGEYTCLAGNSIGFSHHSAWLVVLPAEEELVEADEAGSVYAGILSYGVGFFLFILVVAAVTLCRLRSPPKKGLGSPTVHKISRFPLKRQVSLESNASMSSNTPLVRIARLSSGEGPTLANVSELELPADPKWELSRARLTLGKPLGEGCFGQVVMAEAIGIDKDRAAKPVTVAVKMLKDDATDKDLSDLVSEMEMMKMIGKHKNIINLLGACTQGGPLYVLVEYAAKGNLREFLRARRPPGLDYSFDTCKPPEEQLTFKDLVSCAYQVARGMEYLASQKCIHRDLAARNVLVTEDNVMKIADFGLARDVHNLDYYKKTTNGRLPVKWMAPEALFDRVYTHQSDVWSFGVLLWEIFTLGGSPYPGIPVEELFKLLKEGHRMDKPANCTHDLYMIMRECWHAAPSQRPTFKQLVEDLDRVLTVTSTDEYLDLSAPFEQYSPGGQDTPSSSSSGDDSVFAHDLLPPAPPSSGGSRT
Sequence of Fyn (P06241 whole entry, looked up): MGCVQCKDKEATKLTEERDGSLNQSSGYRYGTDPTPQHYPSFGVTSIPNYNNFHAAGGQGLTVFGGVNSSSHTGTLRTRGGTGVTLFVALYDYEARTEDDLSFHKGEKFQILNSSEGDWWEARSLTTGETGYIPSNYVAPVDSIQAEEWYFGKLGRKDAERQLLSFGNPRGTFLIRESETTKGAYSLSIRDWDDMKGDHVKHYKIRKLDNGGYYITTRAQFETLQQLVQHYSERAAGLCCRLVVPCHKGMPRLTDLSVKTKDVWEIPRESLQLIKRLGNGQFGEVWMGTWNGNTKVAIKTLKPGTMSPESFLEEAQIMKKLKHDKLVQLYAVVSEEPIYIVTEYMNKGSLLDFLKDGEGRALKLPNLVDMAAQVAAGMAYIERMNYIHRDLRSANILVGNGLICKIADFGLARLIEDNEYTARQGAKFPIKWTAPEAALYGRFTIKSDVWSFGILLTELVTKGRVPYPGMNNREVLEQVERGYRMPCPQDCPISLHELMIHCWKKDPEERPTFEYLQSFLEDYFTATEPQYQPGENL

Row | Sequence | SH2 binding enrichment (SHP2-C SH2) | SH2 binding enrichment (c-Src SH2) | SH2 binding enrichment (Grb2 SH2) | phosphorylation enrichment (Hck) | phosphorylation enrichment (Fes) | phosphorylation enrichment (FGFR3) | phosphorylation enrichment (Fyn) | phosphorylation enrichment (Fer (mouse)) | phosphorylation enrichment (Jak2) | phosphorylation enrichment (FGFR1) | phosphorylation enrichment (MERTK) | phosphorylation enrichment (EPHB2) | phosphorylation enrichment (AncSZ) | phosphorylation enrichment (EPHB1) | phosphorylation enrichment (c-Abl (mouse)) | phosphorylation enrichment (c-Src)
1 | MALDIYRASYY [ALK_Y1278_R1275L] | 0.9 | 1.19 | 1.15 | 1.57 | 0.911 | 0.713 | 0.974 | 0.434 | 0.86 | 0.655 | 0.674 | 0.564 | 0.874 | 0.594 | 2.99 | 1.76
2 | SEEVTYATLTF [CLEC12B_Y7] | 2.52 | 0.481 | 0.845 | 5.06 | 1.53 | 1.57 | 6.58 | 2.19 | 1.38 | 1.49 | 2.18 | 1.07 | 1.48 | 0.98 | 5.98 | 5.28
3 | ANNPLYKEATS [ITGB3_Y773] | 0.913 | 0.53 | 1.04 | 0.385 | 0.53 | 0.379 | 0.343 | 0.228 | 0.406 | 0.349 | 0.316 | 0.499 | 0.395 | 0.363 | 0.635 | 0.3
4 | RAILDYIASKF [GSTA3_Y74_N73D_YF] | 1.06 | 0.689 | 1.08 | 0.395 | 1.02 | 0.79 | 0.433 | 0.542 | 0.755 | 0.567 | 0.375 | 0.445 | 0.674 | 0.479 | 0.603 | 0.358
5 | YPKVRYHWLVL [APTX_Y214_A212V] | 1.17 | 0.756 | 1.05 | 0.547 | 1.35 | 1.03 | 0.531 | 0.506 | 1.06 | 0.681 | 0.448 | 0.758 | 1 | 0.652 | 1.15 | 0.474
6 | DRLASYLDKVR [KRT10_Y160] | 0.626 | 0.507 | 0.848 | 0.454 | 0.643 | 0.471 | 0.378 | 0.336 | 0.533 | 0.435 | 0.379 | 0.429 | 0.619 | 0.4 | 0.519 | 0.345
7 | PTTKTYFPHFD [HBA1_Y43] | 0.951 | 0.396 | 0.825 | 0.352 | 0.929 | 0.625 | 0.545 | 0.479 | 0.572 | 0.595 | 0.553 | 0.396 | 0.66 | 0.374 | 0.59 | 0.576
8 | EVESPYEVRDY [GIGYF2_Y1168_H1171R] | 0.885 | 0.626 | 0.674 | 1.48 | 1.29 | 0.751 | 5.17 | 5.62 | 1.16 | 0.542 | 0.554 | 0.752 | 1.23 | 0.785 | 0.765 | 4.71
9 | GSETPYMDRTP [ESS2_Y335_V336M] | 0.788 | 0.49 | 1.05 | 0.365 | 0.715 | 0.413 | 0.344 | 0.363 | 0.499 | 0.431 | 0.365 | 0.413 | 0.662 | 0.571 | 0.424 | 0.454
10 | VTAALYGRLFE [BTD_Y536_YF] | 1.16 | 0.627 | 1.16 | 5.74 | 0.734 | 0.527 | 6.32 | 0.436 | 0.633 | 0.439 | 1.08 | 0.656 | 0.748 | 0.535 | 0.626 | 4.97
11 | PVGDVYKKKGL [NMNAT1_Y55_A54V] | 0.748 | 0.55 | 0.837 | 0.646 | 0.557 | 0.915 | 0.465 | 0.487 | 0.405 | 0.498 | 0.491 | 0.567 | 0.534 | 0.451 | 0.417 | 0.488
12 | RLLVIYPWTQR [HBG2_Y36_V35I] | 1.49 | 1.31 | 1.97 | 0.635 | 1.46 | 1.03 | 0.793 | 0.498 | 1.12 | 0.594 | 0.58 | 0.639 | 1.98 | 0.836 | 0.907 | 0.588
13 | FFHCTYKQRMI [CLEC12A_Y242_K244Q_YF] | 1.07 | 0.902 | 1.27 | 0.498 | 1.28 | 0.752 | 0.493 | 0.513 | 1.02 | 0.643 | 0.517 | 0.608 | 1.04 | 0.687 | 0.85 | 0.435
14 | CVRTIYTIDGS [DCLK2_Y124_G119C] | 0.432 | 0.529 | 0.702 | 0.683 | 1.06 | 1 | 1.32 | 0.505 | 0.807 | 0.447 | 0.481 | 0.628 | 0.891 | 0.746 | 0.799 | 1.97
15 | RHFTGYRIELQ [INSR_Y818] | 2.13 | 1.38 | 1.77 | 0.401 | 1.37 | 0.661 | 0.604 | 0.544 | 0.989 | 0.531 | 0.546 | 0.56 | 1.01 | 0.472 | 0.805 | 0.525
16 | RSHLSYDVTPE [IQGAP3_Y1098_P1097S] | 0.787 | 0.555 | 0.951 | 0.432 | 1.14 | 0.924 | 0.509 | 0.453 | 1.05 | 0.473 | 0.594 | 0.717 | 0.733 | 0.767 | 0.982 | 0.561
17 | WIPIQDPIISE [NOG_Y222_Y222D] | 0.748 | 0.488 | 0.729 | 0.622 | 1.24 | 0.717 | 0.578 | 0.52 | 0.965 | 0.578 | 0.474 | 0.551 | 1.18 | 0.678 | 0.882 | 0.557

Further lines, with some results ahead:

Row | SH2 binding enrichment (SHP2-C SH2) | SH2 binding enrichment (c-Src SH2) | SH2 binding enrichment (Grb2 SH2) | Sequence | phosphorylation enrichment (Hck) | phosphorylation enrichment (Fes) | phosphorylation enrichment (FGFR3) | phosphorylation enrichment (Fyn) | phosphorylation enrichment (Fer (mouse)) | phosphorylation enrichment (Jak2) | phosphorylation enrichment (FGFR1) | phosphorylation enrichment (MERTK) | phosphorylation enrichment (EPHB2) | phosphorylation enrichment (AncSZ) | phosphorylation enrichment (EPHB1) | phosphorylation enrichment (c-Abl (mouse)) | phosphorylation enrichment (c-Src)
18 | 0.646 | 0.475 | 0.678 | GSERRYSREGG [PTPRN2_Y139] | 0.356 | 0.468 | 0.412 | 0.479 | 0.386 | 0.45 | 0.4 | 0.415 | 0.413 | 0.703 | 0.5 | 0.46 | 0.463
19 | 0.714 | 0.346 | 0.646 | GEEIKYMLWLS [OTC_Y55] | 0.645 | 1.28 | 0.934 | 0.493 | 0.745 | 1.21 | 0.682 | 0.703 | 0.62 | 1.24 | 0.592 | 1.19 | 0.518
20 | 0.598 | 2.45 | 0.849 | SVVVPYEPLEV [TP53_Y220_P223L] | 0.533 | 1.23 | 0.836 | 0.587 | 0.934 | 0.947 | 0.531 | 0.489 | 0.602 | 1.19 | 0.562 | 0.697 | 0.46
21 | 0.552 | 0.611 | 0.797 | TGYRPYVCPFD [YY1_Y383_D380Y] | 0.525 | 1.33 | 0.951 | 0.583 | 0.574 | 1.04 | 0.621 | 0.551 | 0.706 | 1.16 | 0.753 | 0.808 | 0.412
22 | 0.439 | 0.468 | 0.939 | RAFRHYLLKQK [SCN2A_Y1919_R1918H_YF] | 1.28 | 1.59 | 1.68 | 1.16 | 1.49 | 0.912 | 0.955 | 0.97 | 1.67 | 1.16 | 0.793 | 1.48 | 0.907
23 | 0.876 | 0.805 | 0.916 | FGYPGYQCKHY [TIMP3_Y177_S179C] | 0.44 | 0.806 | 0.59 | 0.477 | 0.374 | 0.588 | 0.46 | 0.704 | 0.519 | 0.718 | 0.295 | 0.473 | 0.428
24 | 0.334 | 0.489 | 0.552 | RQGQAYRGQRV [TSHR_Y706_A703G] | 0.47 | 0.805 | 0.447 | 0.509 | 0.649 | 0.48 | 0.452 | 0.454 | 0.339 | 0.718 | 0.338 | 0.458 | 0.453
25 | 0.407 | 0.458 | 0.627 | ARGTRYRFVSQ [UCN3_Y95_YF] | 0.546 | 0.548 | 0.535 | 0.52 | 0.492 | 0.742 | 0.483 | 0.48 | 0.41 | 0.597 | 0.416 | 0.63 | 0.607
26 | 0.514 | 0.428 | 0.664 | RNFDTYTAGLS [RHBDD1_Y264_YF] | 3.7 | 0.802 | 0.355 | 0.9 | 0.394 | 0.511 | 0.407 | 0.452 | 3.55 | 0.62 | 1.9 | 0.436 | 1.15
27 | 0.619 | 0.425 | 0.747 | TGDFGYRAPGY [TNS2_Y668] | 0.376 | 0.546 | 0.435 | 0.477 | 0.332 | 0.557 | 0.415 | 0.31 | 0.413 | 0.545 | 0.387 | 0.533 | 0.441
28 | 2.05 | 1.72 | 1.83 | CTTIHFNYMCN [TP53_Y234_Y234F] | 0.427 | 0.74 | 0.553 | 0.432 | 0.572 | 0.628 | 0.534 | 0.397 | 0.501 | 0.68 | 0.488 | 0.458 | 0.519
29 | 0.787 | 1.11 | 0.81 | SVVVPYEPAEV [TP53_Y220_P223A] | 0.498 | 1.18 | 0.719 | 0.433 | 0.596 | 1.1 | 0.566 | 0.488 | 0.689 | 1.09 | 0.704 | 0.708 | 0.539
